The values below come from patent US7067117 (CAMBRIDGE UNIVERSITY TECHNICAL SERVICES, dated 2006).

As a reminder, the Kd is a measure of binding affinity in units of concentration. For orientation: EC50 means the midpoint of the concentration-response curve. Low readings indicate higher potency in that assay, high ones lower potency in that assay.

Read-outs that look alike come from different tables or passages of the source. Bridge positions count the residues as written; N and C are the ends. Square brackets hold non-standard residues; d marks the D form. Ends that are not written are not given here. * marks the point of attachment. Biotin = O=C1N[C@H]2[C@H](CS[C@H]2CCCCC(=O)*)N1

Test [1] concerns the target chemokine receptors on THP-1 cells. Briefly: cell-based or functional assay.
In test [2] the target is T1, Duffy Antigen Receptor for Chemokines (DARC) (human, UniProt Q16570 1-336).
T1 construct: whole, on cells
T1 sequence (looked up): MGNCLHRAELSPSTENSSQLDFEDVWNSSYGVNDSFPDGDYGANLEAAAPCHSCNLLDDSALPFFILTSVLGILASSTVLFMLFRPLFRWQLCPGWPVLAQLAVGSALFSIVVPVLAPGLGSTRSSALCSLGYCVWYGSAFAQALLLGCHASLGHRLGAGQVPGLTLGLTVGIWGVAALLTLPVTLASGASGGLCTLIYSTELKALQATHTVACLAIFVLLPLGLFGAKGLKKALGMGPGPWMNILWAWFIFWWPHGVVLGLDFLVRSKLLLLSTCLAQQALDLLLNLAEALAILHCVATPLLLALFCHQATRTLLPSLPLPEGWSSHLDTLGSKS
Briefly: estimated ka for binding to red blood cells divided by average inhibitory ED50 (THP-1 migration). As for the experimental part:
Counts associated with the cells are then determined by gamma-counting scintigraphy. […] Furthermore, Scatchard analysis confirms the presence of a single high affinity binding site with 500–1000 copies per cell, consistent with the known properties of DARC.
The DARC specificity ratio is also determined. The DARC specificity ratio is defined as the estimated ka for association with DARC divided by the $ED50$ for biological activity. […] Thus, it may be difficult to achieve biologically active (as a chemokine inhibitor) concentrations of these peptides in vivo without further modifications of the peptide.
Footnotes [a]'CC-specificity' is the average inhibitory ED$50$ versus SDF1 and IL8 divided by average inhibitory ED$50$ versus MCP-1 and MIP1α. [b]'Duffy selectivity' is the estimated ka for binding to red blood cells divided by average inhibitory ED$50$ versus each of the chemokines (except for peptide 2; see footnote d below). [c]'Average ED$50$' is the average inhibitory ED$50$ for inhibition of THP-1 migration induced by each of the chemokines (except for peptide 2; see footnote e below). [d]For the peptide 2 family, the 'average ED$50$' is the estimated ka for binding to THP-1 cells. [e]For the peptide 2 family, the 'Duffy selectivity' is calculated as the ka for binding to red blood cells divided by the ka for binding THP1-1 cells. [f]For tripeptide derivatives so marked, the peptide is highly specific for one of the four exemplary chemokines.

The target in test [3] is chemokine receptors on THP-1 cells. Put plainly: biotinylated peptide binding to the surface of THP-1 cells; printed as 'ka' in µM.
The target of test [4] is T2, Duffy Antigen Receptor for Chemokines (DARC) (human, UniProt Q16570 1-336).
T2 chain: T1 sequence (looked up)
Put plainly: DARC binding.

In test [5] the target is T3, Duffy Antigen Receptor for Chemokines (DARC) (human) (UniProt Q16570).
T3 sequence (looked up): T1 sequence (looked up)
Briefly: estimated ka for binding to red blood cells divided by average inhibitory ED50 (THP-1 migration).

In test [6] the target is chemokine receptors on THP-1 cells. Put plainly: cell-based or functional assay. This is another data set of the same source.
For test [7] the target is unchanged. Briefly: binding to chemokine receptors on THP-1 cells; given as 'association constant'.
For test [8], the target named is T3, Duffy Antigen Receptor for Chemokines (DARC) (human). Put plainly: DARC binding on red blood cells; given as 'association constant'.
In test [9] the target is TGF-beta receptor of THP-1 cells. Put plainly: biotinylated peptide binding to THP-1 cells.
Test [10] has as its target chemokine receptors on THP-1 cells. Briefly: estimated ka for binding to THP-1 cells, printed under 'AVERAGE ED50 (µM)'.
Test [11] has as its target T1, Duffy Antigen Receptor for Chemokines …. Put plainly: ka for binding to red blood cells divided by ka for binding to THP-1 cells.

B1: peptide 3(3-12)[MCP-1] (peptide)
peptide: CADPKQKWVQ
notes: also called Pep3[3-12]; Pep3(3-12)[MCP-1]
In [1], B1 gave an ED50 for inhibition of THP-1 migration versus IL8 of 9 µM, an ED50 for inhibition of THP-1 migration versus MCP1 of 8 µM, an ED50 for inhibition of THP-1 migration versus MIP1α of 7 µM and an ED50 for inhibition of THP-1 migration versus SDF1α of 9 µM. In test [1], this molecule yielded an average ED50 for inhibition of THP-1 migration induced by each of the chemokines of 8 µM. Besides, the Duffy selectivity in [2] is 1.21 ratio.

In test [3], Biotin-EICADPKQKWVQ [N-terminally biotinylated derivative of peptide 3(1-12)[MCP-1]] came in with a Kd of 10 µM.

In turn, SYRRITSK registered a Kd in [4] of 22 µM.

For the molecule [dC][dQ][dI][dW][dK][dQ][dK][dP][dD][dL][dC] (disulfide 1-11) [CRD-Cys13Leu4Ile11peptide 3(3-12)[MCP-1]], the Duffy selectivity in test [5] is more than 100. The same molecule returned an ED50 for inhibition of MCP-1 induced THP-1 migration in [6] of 0.001 µM. This molecule also returned an average ED50 for inhibition of THP-1 migration induced by each of the chemokines in test [6] of 0.1 µM. The Kd was 0.1 to 0.5 µM in test [7] and 90 µM in [8].

For the molecule KEN, in test [1], the % inhibition of migration induced by IL-8 at 100 µM tripeptide amounted to 70% and the % inhibition of migration induced by MCP-1 at 100 µM tripeptide amounted to 21%.

Turning to HEPKGYHANFC (also: biotinylated (position not given here)) [Biotinylated T2], the EC50 in test [9] worked out at 30 µM.

For EICLDPKQKWVQ [Leu4peptide 3(1-12)[MCP-1]], in test [1], the ED50 for inhibition of THP-1 migration versus IL8 amounted to 3 µM, the ED50 for inhibition of THP-1 migration versus MCP1 turned out to be 8 µM, the ED50 for inhibition of THP-1 migration versus MIP1α came out at 7 µM and the ED50 for inhibition of THP-1 migration versus SDF1α amounted to 3 µM. The same molecule returned an average ED50 for inhibition of THP-1 migration induced by each of the chemokines in test [1] of 5 µM.

In test [1], KQKWVQ (also called Pep3[7-12]; KQKWVQ) [peptide 3(7-12)[MCP-1]] had an ED50 for inhibition of THP-1 migration versus IL8 of 6 µM, an ED50 for inhibition of THP-1 migration versus MCP1 of 7 µM, an ED50 for inhibition of THP-1 migration versus MIP1α of 5 µM and an ED50 for inhibition of THP-1 migration versus SDF1α of 6 µM. In test [1], this molecule had an average ED50 for inhibition of THP-1 migration induced by each of the chemokines of 6 µM. In addition, the Duffy selectivity in test [2] is 2.94 ratio.

The molecule VGPKSCQSSTEFYD returned a Kd in test [4] of more than 100 µM.

Molecule WIQ registered an average ED50 for inhibition of THP-1 migration induced by each of the chemokines in test [1] of 2 µM.

Regarding CSKPGV, the Kd in [4] was more than 100 µM.

Molecule SES displayed a % inhibition of migration induced by RANTES at 100 µM tripeptide in test [1] of 87%.

B2: peptide 2(1-15)[SDF1] (peptide)
peptide: HLKILNTPNCALQIV
notes: also called Pep2[SDF1]; Pep2(1-15)[SDF1]
Regarding B2, the Kd in test [10] was 1 to 10 µM; in test [4] it was 19 µM. This molecule also yielded a Duffy selectivity in [11] of less than 1 ratio.

In turn, SYRRI displayed a Kd in [4] of more than 100 µM.

Turning to [dC][dQ][dV][dW][dK][dQ][dK][dP][dD][dA][dC] (disulfide 1-11 (inferred); not fully specified; printed as -CQVWKQKPDAC--) [CRD-Cys13pep3[3-12]], the Duffy selectivity in test [5] was 8.82. Also, the average ED50 for inhibition of THP-1 migration induced by each of the chemokines in test [1] worked out at 0.8 µM.

B3: Ser7peptide 3(1-12)[MCP-1] (peptide)
peptide: EICADPSQKWVQ
notes: Mutant of peptide 3; also called Ser7pep3
As for B3, in test [1], the ED50 for inhibition of THP-1 migration versus IL8 is 3 µM, the ED50 for inhibition of THP-1 migration versus MCP1 stood at 7 µM, the ED50 for inhibition of THP-1 migration versus MIP1α came to 6 µM and the ED50 for inhibition of THP-1 migration versus SDF1α was 4 µM. The molecule also displayed an average ED50 for inhibition of THP-1 migration induced by each of the chemokines in test [1] of 5 µM. For the same molecule, the Duffy selectivity in test [2] is 2 ratio.

B4: Leu4Ile11peptide 3(1-12)[MCP-1] (peptide)
peptide: EICLDPKQKWIQ
notes: also called Leu4Ile11pep3; Leu4Ile11peptide 3[MCP-1]
Consider B4, for which, in [1], the ED50 for inhibition of THP-1 migration versus IL8 is 3 µM, the ED50 for inhibition of THP-1 migration versus MCP1 is 2 µM, the ED50 for inhibition of THP-1 migration versus MIP1α stood at 1 µM and the ED50 for inhibition of THP-1 migration versus SDF1α was 3 µM. Further, in [1], the average ED50 for inhibition of THP-1 migration induced by each of the chemokines came to 2 µM and the inhibition of MCP-1 induced migration came to 1 µM. In addition, in test [2], the Duffy selectivity is 37.8 ratio.

B5: peptide 2(1-14)[MIP1α] (peptide)
peptide: DYFETSSQCSKPGV
notes: also called Pep2[MIP1α]; Pep2(1-14)[MIP1α]
For the molecule B5, the Kd in test [10] was 1 to 10 µM; in test [7], 0.1 to 0.9 µM; in test [4] it was more than 100 µM. In [11], this molecule showed a Duffy selectivity of more than 100 ratio.

In the case of EICADPSEEWVQ (not fully specified, also called Ser7Glu8Glu9pep3) [Ser7Glu8Glu9peptide 3(1-12)[MCP-1]], in [1], the ED50 for inhibition of THP-1 migration versus IL8 was 9 µM, the ED50 for inhibition of THP-1 migration versus MCP1 amounted to 7 µM, the ED50 for inhibition of THP-1 migration versus MIP1α was determined as 2 µM and the ED50 for inhibition of THP-1 migration versus SDF1α came to 5 µM. Also, in [1], the average ED50 for inhibition of THP-1 migration induced by each of the chemokines was determined as 6 µM. In test [2], the Duffy selectivity was 0.59 ratio.

With TSSKC, in test [4], the Kd was more than 100 µM.

Turning to CPKEAV, the Kd in test [4] is more than 100 µM.

ELRVIESGPHCANTEI (also called Pep2[IL8]) [Pep2(1-16)[IL8]]: in test [10], the Kd is 1 to 10 µM. The Duffy selectivity in test [11] was less than 1 ratio.

Turning to SEE, in [1], the % inhibition of migration induced by MIP1α at 100 µM tripeptide stood at 65%, the ED50 for inhibition of THP-1 migration induced by the one chemokine it is specific for (MIP1α) stood at 0.8 µM and the ED50 for inhibition of THP-1 migration versus MIP1α came out at 6 µM.

As to DYFETSSQC, the dissociation constant (Kd) in [4] was more than 100 µM.

As to EICADP [peptide 3(1-6)[MCP-1]], the Duffy selectivity in test [5] is 5.32. In [1], this molecule registered an ED50 for inhibition of THP-1 migration versus IL8 of 17 µM, an ED50 for inhibition of THP-1 migration versus MCP1 of 33 µM, an ED50 for inhibition of THP-1 migration versus MIP1α of 25 µM and an ED50 for inhibition of THP-1 migration versus SDF1α of 19 µM. In [1], this molecule registered an average ED50 for inhibition of THP-1 migration induced by each of the chemokines of 24 µM.

In [1], EICADPKQKWIQ [Ile11peptide 3(1-12)[MCP-1]] came in with an ED50 for inhibition of THP-1 migration versus IL8 of 2 µM, an ED50 for inhibition of THP-1 migration versus MCP1 of 6 µM, an ED50 for inhibition of THP-1 migration versus MIP1α of 4 µM and an ED50 for inhibition of THP-1 migration versus SDF1α of 7 µM. In test [1], the average ED50 for inhibition of THP-1 migration induced by each of the chemokines was 5 µM.
